Reference: the MegaScale stability set (Tsuboyama et al. 2023)

B1: EEHEE_rd3_0130 (parent)
chain: TKIIVNGKTFTAPTEEEAQKIAEKLAKKAGLTVHKKNGTFELK

Variants of: B1
Assay: folding stability dG (cDNA display proteolysis); higher = more stable
Details: PBS, room temperature
In the case of TKIIVNGKTFTAPTEEEAQKIAEKLSKKAGLTVHKKNGTFELK, the “folding stability dG” value is reported as 0.1 kcal/mol. With TKIIVNGKTFTAPTEEEAQKIAEKLFKKAGLTVHKKNGTFELK the “folding stability dG” value was 0.197 kcal/mol. In the case of TKIIVNGKTFTAPTEEEAQKIAEKLRKKAGLTVHKKNGTFELK, the “folding stability dG” value is reported as -0.166 kcal/mol. In the case of TKIIVNGKTFTAPTEEEAQKIAEKLGKKAGLTVHKKNGTFELK, the “folding stability dG” value is reported as 0.163 kcal/mol. In the case of TKIIVNGKTFTAPTEEEAQKIAEKLVKKAGLTVHKKNGTFELK, the “folding stability dG” value is reported as -0.292 kcal/mol. In the case of TKIIVNGKTFTAPTEEEAQKIAEKLNKKAGLTVHKKNGTFELK, the “folding stability dG” value is reported as -0.556 kcal/mol. In the case of TKIIVNGKTFTAPTEEEAQKIAEKLYKKAGLTVHKKNGTFELK, the “folding stability dG” value is reported as -0.009 kcal/mol. In the case of TKIIVNGKTFTAPTEEEAQKIAEKLKKKAGLTVHKKNGTFELK, the “folding stability dG” value is reported as -0.188 kcal/mol. For TKIIVNGKTFTAPTEEEAQKIAEKLMKKAGLTVHKKNGTFELK, the “folding stability dG” value was -0.151 kcal/mol. For TKIIVNGKTFTAPTEEEAQKIAEKLTKKAGLTVHKKNGTFELK, the “folding stability dG” value was -0.552 kcal/mol. For TKIIVNGKTFTAPTEEEAQKIAEKLQKKAGLTVHKKNGTFELK, the “folding stability dG” value was -0.508 kcal/mol. With TKIIVNGKTFTAPTEEEAQKIAEKLDKKAGLTVHKKNGTFELK the “folding stability dG” value was -0.815 kcal/mol. In the case of TKIIVNGKTFTAPTEEEAQKIAEKLIKKAGLTVHKKNGTFELK, the “folding stability dG” value is reported as -0.198 kcal/mol. In the case of TKIIVNGKTFTAPTEEEAQKIAEKLLKKAGLTVHKKNGTFELK, the “folding stability dG” value is reported as 0.094 kcal/mol. In the case of TKIIVNGKTFTAPTEEEAQKIAEKLWKKAGLTVHKKNGTFELK, the “folding stability dG” value is reported as -0.138 kcal/mol. In the case of TKIIVNGKTFTAPTEEEAQKIAEKLCKKAGLTVHKKNGTFELK, the “folding stability dG” value is reported as 0.45 kcal/mol. In the case of TKIIVNGKTFTAPTEEEAQKIAEKLHKKAGLTVHKKNGTFELK, the “folding stability dG” value is reported as -0.447 kcal/mol. In the case of TKIIVNGKTFTAPTEEEAQKIAEKLEKKAGLTVHKKNGTFELK, the “folding stability dG” value is reported as -0.437 kcal/mol. In the case of TKIIVNGKTFTAPTEEEAQKIAEKLAFKAGLTVHKKNGTFELK, the “folding stability dG” value is reported as 0.736 kcal/mol. In the case of TKIIVNGKTFTAPTEEEAQKIAEKLAGKAGLTVHKKNGTFELK, the “folding stability dG” value is reported as 0.228 kcal/mol. In the case of TKIIVNGKTFTAPTEEEAQKIAEKLARKAGLTVHKKNGTFELK, the “folding stability dG” value is reported as 0.991 kcal/mol. In the case of TKIIVNGKTFTAPTEEEAQKIAEKLASKAGLTVHKKNGTFELK, the “folding stability dG” value is reported as 0.587 kcal/mol. With TKIIVNGKTFTAPTEEEAQKIAEKLAYKAGLTVHKKNGTFELK the “folding stability dG” value was 0.616 kcal/mol. In the case of TKIIVNGKTFTAPTEEEAQKIAEKLADKAGLTVHKKNGTFELK, the “folding stability dG” value is reported as 0.266 kcal/mol. In the case of TKIIVNGKTFTAPTEEEAQKIAEKLAIKAGLTVHKKNGTFELK, the “folding stability dG” value is reported as 0.597 kcal/mol. In the case of TKIIVNGKTFTAPTEEEAQKIAEKLAAKAGLTVHKKNGTFELK, the “folding stability dG” value is reported as 0.812 kcal/mol. In the case of TKIIVNGKTFTAPTEEEAQKIAEKLAWKAGLTVHKKNGTFELK, the “folding stability dG” value is reported as 0.749 kcal/mol. With TKIIVNGKTFTAPTEEEAQKIAEKLAHKAGLTVHKKNGTFELK the “folding stability dG” value was 0.537 kcal/mol. With TKIIVNGKTFTAPTEEEAQKIAEKLALKAGLTVHKKNGTFELK the “folding stability dG” value was 0.834 kcal/mol. In the case of TKIIVNGKTFTAPTEEEAQKIAEKLAEKAGLTVHKKNGTFELK, the “folding stability dG” value is reported as 0.532 kcal/mol. For TKIIVNGKTFTAPTEEEAQKIAEKLACKAGLTVHKKNGTFELK, the “folding stability dG” value was 1.03 kcal/mol. In the case of TKIIVNGKTFTAPTEEEAQKIAEKLATKAGLTVHKKNGTFELK, the “folding stability dG” value is reported as 0.52 kcal/mol. For TKIIVNGKTFTAPTEEEAQKIAEKLANKAGLTVHKKNGTFELK, the “folding stability dG” value was 0.413 kcal/mol. For TKIIVNGKTFTAPTEEEAQKIAEKLAPKAGLTVHKKNGTFELK, the “folding stability dG” value was -0.957 kcal/mol. For TKIIVNGKTFTAPTEEEAQKIAEKLAQKAGLTVHKKNGTFELK, the “folding stability dG” value was 0.76 kcal/mol. With TKIIVNGKTFTAPTEEEAQKIAEKLAMKAGLTVHKKNGTFELK the “folding stability dG” value was 0.725 kcal/mol. For TKIIVNGKTFTAPTEEEAQKIAEKLAVKAGLTVHKKNGTFELK, the “folding stability dG” value was 0.456 kcal/mol. With TKIIVNGKTFTAPTEEEAQKIAEVLAKKAGLTVHKKNGTFELK the “folding stability dG” value was 0.829 kcal/mol. In the case of TKIIVNGKTFTAPTEEEAQKIAELLAKKAGLTVHKKNGTFELK, the “folding stability dG” value is reported as 1.11 kcal/mol. With TKIIVNGKTFTAPTEEEAQKIAENLAKKAGLTVHKKNGTFELK the “folding stability dG” value was 0.76 kcal/mol. For TKIIVNGKTFTAPTEEEAQKIAEELAKKAGLTVHKKNGTFELK, the “folding stability dG” value was 0.799 kcal/mol. With TKIIVNGKTFTAPTEEEAQKIAERLAKKAGLTVHKKNGTFELK the “folding stability dG” value was 1.08 kcal/mol. For TKIIVNGKTFTAPTEEEAQKIAEGLAKKAGLTVHKKNGTFELK, the “folding stability dG” value was 0.617 kcal/mol. With TKIIVNGKTFTAPTEEEAQKIAESLAKKAGLTVHKKNGTFELK the “folding stability dG” value was 0.873 kcal/mol. With TKIIVNGKTFTAPTEEEAQKIAEILAKKAGLTVHKKNGTFELK the “folding stability dG” value was 0.99 kcal/mol. With TKIIVNGKTFTAPTEEEAQKIAEWLAKKAGLTVHKKNGTFELK the “folding stability dG” value was 1.78 kcal/mol. With TKIIVNGKTFTAPTEEEAQKIAEYLAKKAGLTVHKKNGTFELK the “folding stability dG” value was 1.64 kcal/mol. For TKIIVNGKTFTAPTEEEAQKIAETLAKKAGLTVHKKNGTFELK, the “folding stability dG” value was 0.939 kcal/mol. With TKIIVNGKTFTAPTEEEAQKIAEQLAKKAGLTVHKKNGTFELK the “folding stability dG” value was 0.873 kcal/mol. With TKIIVNGKTFTAPTEEEAQKIAEALAKKAGLTVHKKNGTFELK the “folding stability dG” value was 1.06 kcal/mol. With TKIIVNGKTFTAPTEEEAQKIAEMLAKKAGLTVHKKNGTFELK the “folding stability dG” value was 1.14 kcal/mol. With TKIIVNGKTFTAPTEEEAQKIAEDLAKKAGLTVHKKNGTFELK the “folding stability dG” value was 0.676 kcal/mol. For TKIIVNGKTFTAPTEEEAQKIAEHLAKKAGLTVHKKNGTFELK, the “folding stability dG” value was 0.996 kcal/mol. In the case of TKIIVNGKTFTAPTEEEAQKIAEFLAKKAGLTVHKKNGTFELK, the “folding stability dG” value is reported as 1.47 kcal/mol. In the case of TKIIVNGKTFTAPTEEEAQKIAMKLAKKAGLTVHKKNGTFELK, the “folding stability dG” value is reported as 1.04 kcal/mol. With TKIIVNGKTFTAPTEEEAQKIAKKLAKKAGLTVHKKNGTFELK the “folding stability dG” value was 0.602 kcal/mol. In the case of TKIIVNGKTFTAPTEEEAQKIAVKLAKKAGLTVHKKNGTFELK, the “folding stability dG” value is reported as 0.598 kcal/mol. With TKIIVNGKTFTAPTEEEAQKIALKLAKKAGLTVHKKNGTFELK the “folding stability dG” value was 0.894 kcal/mol. In the case of TKIIVNGKTFTAPTEEEAQKIAGKLAKKAGLTVHKKNGTFELK, the “folding stability dG” value is reported as 0.246 kcal/mol.
